Source: IntAct's records for PubMed 31515488

B1: Microtubule-associated tumor suppressor candidate 2 (Homo sapiens), Q5JR59-3 (parent)
chain: MGHCCCKPYNCLQCLDKTNESALVKEKELSIELANIRDEVAFHTAKCEKLQKEKEELERRFEDEVKRLGWQQQAELQELEERLQLQFEAEMARLQEEHGDQLLSIRCQHQEQVEDLTASHDAALLEMENNHTVAITILQDDHDHKVQELMSTHELEKKELEENFEKLRLSLQDQVDTLTFQSQSLRDRARRFEEALRKNTEEQLEIALAPYQHLEEDMKSLKQVLEMKNQQIHEQEKKILELEKLAEKNIILEEKIQVLQQQNEDLKARIDQNTVVTRQLSEENANLQEYVEKETQEKKRLSRTNEELLWKLQTGDPTSPIKLSPTSPVYRGSSSGPSSPARVSTTPR
partner: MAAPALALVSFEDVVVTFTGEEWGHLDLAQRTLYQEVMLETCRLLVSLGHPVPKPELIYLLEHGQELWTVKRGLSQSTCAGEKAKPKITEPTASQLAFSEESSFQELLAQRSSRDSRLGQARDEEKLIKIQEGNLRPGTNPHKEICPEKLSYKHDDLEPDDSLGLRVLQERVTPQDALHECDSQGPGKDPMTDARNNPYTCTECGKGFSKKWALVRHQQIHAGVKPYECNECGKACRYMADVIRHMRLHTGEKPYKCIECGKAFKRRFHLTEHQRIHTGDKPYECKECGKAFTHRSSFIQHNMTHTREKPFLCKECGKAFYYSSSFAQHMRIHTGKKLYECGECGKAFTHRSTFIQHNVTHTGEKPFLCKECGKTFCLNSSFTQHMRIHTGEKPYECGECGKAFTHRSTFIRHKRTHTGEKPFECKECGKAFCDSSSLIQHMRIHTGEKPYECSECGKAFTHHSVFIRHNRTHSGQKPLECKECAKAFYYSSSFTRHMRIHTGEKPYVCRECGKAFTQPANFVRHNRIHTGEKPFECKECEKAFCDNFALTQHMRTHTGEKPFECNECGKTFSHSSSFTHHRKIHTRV
B2: Vacuolar protein sorting-associated protein 4B (Homo sapiens), O75351 (parent)
chain: MSSTSPNLQKAIDLASKAAQEDKAGNYEEALQLYQHAVQYFLHVVKYEAQGDKAKQSIRAKCTEYLDRAEKLKEYLKNKEKKAQKPVKEGQPSPADEKGNDSDGEGESDDPEKKKLQNQLQGAIVIERPNVKWSDVAGLEGAKEALKEAVILPIKFPHLFTGKRTPWRGILLFGPPGTGKSYLAKAVATEANNSTFFSISSSDLVSKWLGESEKLVKNLFQLARENKPSIIFIDEIDSLCGSRSENESEAARRIKTEFLVQMQGVGVDNDGILVLGATNIPWVLDSAIRRRFEKRIYIPLPEPHARAAMFKLHLGTTQNSLTEADFRELGRKTDGYSGADISIIVRDALMQPVRKVQSATHFKKVRGPSRADPNHLVDDLLTPCSPGDPGAIEMTWMDVPGDKLLEPVVSMSDMLRSLSNTKPTVNEHDLLKLKKFTEDFGQEG
B3: Interleukin-1 receptor-associated kinase 4 (Homo sapiens), Q9NWZ3 (parent)
chain: MNKPITPSTYVRCLNVGLIRKLSDFIDPQEGWKKLAVAIKKPSGDDRYNQFHIRRFEALLQTGKSPTSELLFDWGTTNCTVGDLVDLLIQNEFFAPASLLLPDAVPKTANTLPSKEAITVQQKQMPFCDKDRTLMTPVQNLEQSYMPPDSSSPENKSLEVSDTRFHSFSFYELKNVTNNFDERPISVGGNKMGEGGFGVVYKGYVNNTTVAVKKLAAMVDITTEELKQQFDQEIKVMAKCQHENLVELLGFSSDGDDLCLVYVYMPNGSLLDRLSCLDGTPPLSWHMRCKIAQGAANGINFLHENHHIHRDIKSANILLDEAFTAKISDFGLARASEKFAQTVMTSRIVGTTAYMAPEALRGEITPKSDIYSFGVVLLEIITGLPAVDEHREPQLLLDIKEEIEDEEKTIEDYIDKKMNDADSTSVEAMYSVASQCLHEKKNKRPDIKKVQQLLQEMTAS
B4: THAP domain-containing protein 8 (Homo sapiens), Q8NA92 (parent)
chain: MPKYCRAPNCSNTAGRLGADNRPVSFYKFPLKDGPRLQAWLQHMGCEHWVPSCHQHLCSEHFTPSCFQWRWGVRYLRPDAVPSIFSRGPPAKSQRRTRSTQKPVSPPPPLQKNTPLPQSPAIPVSGPVRLVVLGPTSGSPKTVATMLLTPLAPAPTPERSQPEVPAQQAQTGLGPVLGALQRRVRRLQRCQERHQAQLQALERLAQQLHGESLLARARRGLQRLTTAQTLGPEESQTFTIICGGPDIAMVLAQDPAPATVDAKPELLDTRIPSA

Variants of: B1
Conditions: with zn599_human ZNF599, Q96NL3

Variant	effect of a mutation on the interaction
A89V	with no effect

Variants of: B2
Conditions: with anchr_human ZFYVE19, Q96K21
anchr_human ZFYVE19, Q96K21, sequence (Q96K21 whole entry): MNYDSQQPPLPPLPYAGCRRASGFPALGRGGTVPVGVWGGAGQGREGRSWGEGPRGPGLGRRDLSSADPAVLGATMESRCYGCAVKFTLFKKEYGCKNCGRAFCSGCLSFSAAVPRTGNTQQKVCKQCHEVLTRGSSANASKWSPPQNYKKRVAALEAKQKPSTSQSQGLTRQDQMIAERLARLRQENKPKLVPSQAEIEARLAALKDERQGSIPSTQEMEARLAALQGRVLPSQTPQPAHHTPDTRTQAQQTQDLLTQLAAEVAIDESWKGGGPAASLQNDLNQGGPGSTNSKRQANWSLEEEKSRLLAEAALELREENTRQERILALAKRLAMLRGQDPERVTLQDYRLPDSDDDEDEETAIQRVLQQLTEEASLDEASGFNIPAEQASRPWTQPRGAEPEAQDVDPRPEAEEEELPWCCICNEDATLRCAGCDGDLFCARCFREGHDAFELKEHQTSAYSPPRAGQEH

Variant	effect of a mutation on the interaction
I58M	with no effect

Variants of: B3
Conditions: with myd88_human MYD88, Q99836
myd88_human MYD88, Q99836, sequence (Q99836 whole entry): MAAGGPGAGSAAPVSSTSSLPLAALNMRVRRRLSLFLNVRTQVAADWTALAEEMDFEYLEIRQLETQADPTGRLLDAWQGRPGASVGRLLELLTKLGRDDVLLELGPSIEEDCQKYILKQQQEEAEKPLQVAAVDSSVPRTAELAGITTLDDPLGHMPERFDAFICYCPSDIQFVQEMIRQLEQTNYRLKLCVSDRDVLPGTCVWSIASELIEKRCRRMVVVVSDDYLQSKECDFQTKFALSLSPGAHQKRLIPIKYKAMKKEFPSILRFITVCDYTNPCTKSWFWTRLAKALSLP

Variant	effect of a mutation on the interaction
R20W	with no effect
D73E	disrupting interaction strength
R391H	with no effect
R12C	disrupting interaction strength
R12H	disrupting interaction strength
T76I	disrupting interaction strength
G298D	disrupting interaction strength
A428T	with no effect

Variants of: B4
Conditions: with tfp11_human TFIP11, Q9UBB9
tfp11_human TFIP11, Q9UBB9, sequence (Q9UBB9 whole entry): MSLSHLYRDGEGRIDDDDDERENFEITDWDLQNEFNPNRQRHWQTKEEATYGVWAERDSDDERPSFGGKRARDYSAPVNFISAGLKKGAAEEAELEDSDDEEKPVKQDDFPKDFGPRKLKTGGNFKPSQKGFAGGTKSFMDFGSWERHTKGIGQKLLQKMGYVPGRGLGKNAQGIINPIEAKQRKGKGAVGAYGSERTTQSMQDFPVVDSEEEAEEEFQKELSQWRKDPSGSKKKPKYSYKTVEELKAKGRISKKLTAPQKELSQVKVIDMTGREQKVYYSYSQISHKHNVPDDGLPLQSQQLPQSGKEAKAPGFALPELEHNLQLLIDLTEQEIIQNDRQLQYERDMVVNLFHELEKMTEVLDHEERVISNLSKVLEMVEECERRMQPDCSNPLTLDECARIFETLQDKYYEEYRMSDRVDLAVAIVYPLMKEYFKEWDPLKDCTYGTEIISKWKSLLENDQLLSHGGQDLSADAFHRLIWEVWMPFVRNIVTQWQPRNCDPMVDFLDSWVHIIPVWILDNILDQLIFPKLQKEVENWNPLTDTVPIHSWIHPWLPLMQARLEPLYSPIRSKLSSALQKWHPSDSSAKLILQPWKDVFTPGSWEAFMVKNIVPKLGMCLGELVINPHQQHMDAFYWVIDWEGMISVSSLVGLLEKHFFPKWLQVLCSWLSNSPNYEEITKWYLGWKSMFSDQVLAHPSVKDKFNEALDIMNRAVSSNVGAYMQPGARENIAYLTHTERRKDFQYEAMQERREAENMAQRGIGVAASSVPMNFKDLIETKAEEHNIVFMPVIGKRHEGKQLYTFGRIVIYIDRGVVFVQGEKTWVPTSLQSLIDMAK

Variant	effect of a mutation on the interaction
R189W	with no effect
R185Q	with no effect
P157S	with no effect
